The values that follow come from the nanobody polyreactivity screen of Harvey et al. (2022).

A short description of this data set: yeast display, Sf9 membrane polyspecificity reagent, FACS + sequencing; frameworks hold sequencing errors. In a few lines: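 A synthetic nanobody library was expressed on Saccharomyces cerevisiae BJ5465 by galactose induction for 36–48 hours. The library was stained for 1 hour at 4 °C with 10% biotinylated, detergent-solubilized Sf9 membrane reagent and enriched with streptavidin microbeads before FACS. Low and high (top ~1%) gates were set on anti-HA fluorescence for expression and streptavidin fluorescence for reagent binding, and each polyreactivity label reflects the gate of origin.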
In the case of “QVQLVESAGGLVQAGGSLRLSCAASGITFRYYAMGWYRQAPGKERELVATITRGGSTYYADSVKGRFTISRDNAKNTVYLQMNSLKPEDTAVYYCAARSYVPSYDYWGQGTQVTVSS”, the “polyreactivity (PSR sort gate)” value is on record as “high polyreactivity”.

For the sequence “QVQLVETGGGLVQAGGSLRLSCAASGSIFWSNAMGWYRQAPGKERELVAAITSGGRTYYADSVKGRFTISRDNAKNTVYLQMNSLKPEDTAVYYCAAYWNSATGFDYWGQVTQVTVSS”, the “polyreactivity (PSR sort gate)” value is “high polyreactivity”.

For “QVQLVESGGGLVQAGGSLRLSCAASGSIFQHYSLGRSRQAPGKERELVAAISYDTTSTYYADSVKGRFTISRDNAKNNVYLQMNSLKPEDTAVYYCNTYPEVYGPFQYDYWGQGTQVTVSS”, the “polyreactivity (PSR sort gate)” value is reported as “low polyreactivity”.

As for “QVQLVESGGGLVQAGGSLRFSCAASGRTFPSKTMGLYRQAPGKERELVAAISKNGGSTYYADSVKGRFTISRDNAKNTVYLQMNSLKPEDTAVYYCNRVRYPRVDYWGQGTQVTVSS”, the “polyreactivity (PSR sort gate)” value is given as “high polyreactivity”.

In the case of “QVQLVESGGGLVQAGGSLPLSCAASGRIFKDNAMGWYRQAPGNEREMVAAISSGASTSYADSVKGRFTISRDYAKNTVYLQRNSLKPEDTAVYYCNGGGDLYYPGWLFDYWGQGTQVTVSS”, the “polyreactivity (PSR sort gate)” value was “low polyreactivity”.

For the sequence “QVQLVESGGGLVQEGGSLRLSCAASGSTFYYYAMGWYRQAPGKERELVAAISSSGSTYYADSVKGRFTISRDNAKNTVYLQMISLNPEDTAVFYCNADSRTAGLNSEYDYWGQGTQVTVSS”, the “polyreactivity (PSR sort gate)” value is listed as “low polyreactivity”.

Regarding “QVQLVESGGGLVQAGGSLRLSCAASGNILATNCMGWYRQAPGMERELVAAITFSGDTTYYADSVKGRFTISRDNAKNTVYLQMNSLKPEDTAVYYCNAVSFIVNGGYDGDYWGQGTQVTVSS”, the “polyreactivity (PSR sort gate)” value is listed as “low polyreactivity”.

Take “QVQLVESGGGLVQAGGSLRLSCAASGSIFKFYTMGWYRQAPGKERELVATISRSGGGTFYADSVKGRFTISGDNSKNTVYLQMNSLKPEDTAVYYCSADPAFTHYPFGYGYWGQGTQVTVSS”: the “polyreactivity (PSR sort gate)” value was “low polyreactivity”.

Consider “QVQLVESGGGLVQAGGSLRLSCAASGRTFTGSVMGWYRKAPGKERELVAAISWNGGRTYYADSVKGRFTLSRDNAKNTVYLQMYSLKPEDTGVYLCGTYGYNSYDYWGHGTQVTVSS”, for which the “polyreactivity (PSR sort gate)” value was “high polyreactivity”.

Turning to “QVQLVESGGGLVQAGGSLRISCAASVSTFGRYAMGWYRQAPGKERELVAAISRGTTTNYADSVKGRFTISRDNAKNTVYLQMNSLKPEDTAVYYCAADQPSKRYYYWGQGTQVTVSS”, the “polyreactivity (PSR sort gate)” value was “low polyreactivity”.

With “QVQLVESGGGLVQAGGSLRLSCAASGSIFKYYSMGWYRQAPGKERELVAAITIGGNTNYADSVKGRFTISRDNAKNTVYLQLNSLKPEDTAVYYCATGGYYSAIVYGGYDYWGQGTQVTVSS”, the “polyreactivity (PSR sort gate)” value is recorded as “low polyreactivity”.

As to “QVQLVESGGGLVQAGGSLRLSCAASGSTFRVNAMGWYRQAPGKERELVAAISYRGGSTYYADSVKGRFTISRDNAKNTVYLQMNNLKPEDTAVYYCNADLKRRTYGPDSYYWGQGTQVTVSS”, the “polyreactivity (PSR sort gate)” value was “high polyreactivity”.

As for “QVQLVESGGGLVQAGGSLRLSCAASGRTCRRYTIGWYRQAPGKERELVAAITSGGRTNYADSVKGRFTISRDNAKNTVYLQMNSLKPEDTAVYYCNAQNEIWRVTFSPYDRWGYDYWGQGTQVTVSS”, the “polyreactivity (PSR sort gate)” value is reported as “low polyreactivity”.

As for “QVQLVESGGGLVQAGGSLRLSCAASGFIFRYYAMGWYRQAPGKERELVAAISWSGGSTYYADSVKGRFTISRDNAKNTVYLQMNSLKPEDTAVYYCAADRYAILFYAEDYWGQGTQVTVSS”, the “polyreactivity (PSR sort gate)” value is recorded as “low polyreactivity”.

For “QVQLVESGGGLVQAGGSLRLSCAASGGTFYINTMGWNRQAPGKERELVATITIVVSTKYADSVKGRFTISRDNAKNTVYLQMNSLNPEDTAVYYCAKDDVYRDSFLVFDGEMVYWGQGTQVTVSS”, the “polyreactivity (PSR sort gate)” value is recorded as “low polyreactivity”.

On to “QVQLVESGGGLVQAGGSLRVSFAASGLTFFQYGMGWYRQAPGKERELVASITRSRGRTNYADSVKGRFTISRDNAKYTVYLQMNSLKPEDTAVYYCAAYYYGSSAYGYGYNYWGQGTQVTVSS”, for which the “polyreactivity (PSR sort gate)” value was “high polyreactivity”.

For the sequence “QVQLVESGGGLVQAGGSLRLSCAASGSIFYHYAMGWYRQAPGKVRELFAAISGSGGSTYYADSVKGRFTISRDNAKNTVYLQMNSLKPEDSAVYYCAADTSRYHYTRYFFDSDYWGQGTQVTVSS”, the “polyreactivity (PSR sort gate)” value is listed as “low polyreactivity”.

For the sequence “QVQLVESGGGLVQAGGSLRLSCAASGLTLKYYAMGWYRQAPGKERELVAAITYSGGSTYYADSVKGRFTFSRDNAKNTVYLQMNSLIPEDTAVFYCNAGPSVTSGYDYDYWGQGTQVTVSS”, the “polyreactivity (PSR sort gate)” value is “low polyreactivity”.

On to “QVQLVESGGRLVQAGGSLRLSCAASGFTFKYYAMGWYTQAPGKERELVAAIRRSAGSTNYADSVKGRFTISRDNAKNTVYLQMNSLKPEDTAVYYCNTVGTRQPMDYWGQGTQVTVSS”, for which the “polyreactivity (PSR sort gate)” value is listed as “high polyreactivity”.

Regarding “QVQLVESGGGLVQAGGSLRLSCAASGSTFKPNAMGWYRQAPGKERELVAGISGRGGSTNYADSVKGRFTISRDNAKNTVYLQMNRLKPEDTAVYYCAKDAYPLWLTRYNYWGQGTQVTVSS”, the “polyreactivity (PSR sort gate)” value is on record as “low polyreactivity”.

In the case of “HVQLVESGGGLVQAGGSLRLSCAASGFIFVSYAMGWYRQAPGKERELVAAITWSTTSTYYADSVKGRFTISRDNAKNTVYLQMNSLKPEDTAVYYCAKYNFQYKHDYWGQGTQVTVSS”, the “polyreactivity (PSR sort gate)” value is listed as “low polyreactivity”.

In the case of “QVQLVESGGGLVQAGGSRRLSCAAAGISFGWYSMGWYRQAPGKERELVATISQSGTSTYYADSVKGRFTISRDNAKNTVYLQMNSLKPEDTAVYYCAADYIRGYYYRVPLEVDYWGQGNQVTVSS”, the “polyreactivity (PSR sort gate)” value is “low polyreactivity”.

In the case of “QVQLVESGGGLVQAGGSLRLSCAASGFTFRANGMGWYRQAPGKERELVATITSGGTTNYADSVKGRFTISRDNAKITVYLQMNSLKPEDTAVYYCAKAFRHSTFFAPYDYWRQGTQVTVSS”, the “polyreactivity (PSR sort gate)” value is reported as “low polyreactivity”.

For the sequence “QVQLVESGGGLVQAGGSLRLSCAASGRTFYYYAMGWYRQEPGKERELVAAISWSGGRTYYADSVKGRFTISRDNAKNTVYLQMNSLNPEDTAVYYCNAEPPRGYTVSSGGEMDYWGQGTQVTVSS”, the “polyreactivity (PSR sort gate)” value is listed as “low polyreactivity”.

As to “QVQLVEAGGGLVQAGGSLRLSCAASGSTFYKNAMGWYRPAAGKERELVAGISRRGGPTYYADSVKGRFTISRDKAMNTVYLQMNSLNPEDTAVYYCNTGHEEDEYDYWGQGTQVTVSS”, the “polyreactivity (PSR sort gate)” value was “low polyreactivity”.

As for “QVQLVESGGGLVQAGGSLRLSCAASGSTFGSYAMGWHRQAPGKERELVASITYSGDSSNYSDSVKGRFTLSRDNAKNTVYLQMNSLKPEDTAVYYCKARAVMTQYIQKRYDYWGQGTQVTVSS”, the “polyreactivity (PSR sort gate)” value is given as “low polyreactivity”.

Regarding “QVQLVQSGGGLVQAGGSLSLSCAASGYIFISYAMGWNRQAPGQEREFVAAITGDGGSTYADSVKGRFTISRDNAKKTVYGQMNSLKPEDTAVYYCAKKGNASRYFIYDYWGQGTQVTVSS”, the “polyreactivity (PSR sort gate)” value is listed as “low polyreactivity”.

Turning to “QVQLVESGGGLVQAGGTLRLSCAASGRTFNTYAMGWYRLAPGKERELVAAITVPGGSTYYADSVKGRFTLSRDNAKNTVYLQMNSLKPADTAVYYCAAERPPDGYLVVGYVSTQYYYWGQGTQVTVSS”, the “polyreactivity (PSR sort gate)” value is listed as “low polyreactivity”.

On to “QVQLVESGGGLVQAGGSLRLSCAASGSTFYFYAMGWYRQAPGKERELVAAISSSGGSTYYADSVKGRFTISRDNAKNTVYLQMNSLKPEDTAVYYCAADDAIYDSLDYWGQGTQVTVSS”, for which the “polyreactivity (PSR sort gate)” value is “low polyreactivity”.

On to “QVQLVESGGGLVQAGGSLRLSCAASGSTFAYNAMGWYRQAPGKERELVAVITWSDDRTYYADSVKGRFTISRDNAKNTVYLQMNSLKPEDTSVYYCAADRSGYWHYYTPYDYWGQGTQVTVSS”, for which the “polyreactivity (PSR sort gate)” value is listed as “low polyreactivity”.

Consider “QVQLVESGGGLVQAGGSLRLSCAASGRTFGRYAMGWYRQAPGKERELVATITSGGSTNYADSVKGRFTITRDNAKNTVYLQMNSLKPEDTAVYYCAAEFSPSRWAYSEGALRYNYWGQGTQVTVSS”, for which the “polyreactivity (PSR sort gate)” value is “low polyreactivity”.

As for “QVQLEDSGGGLVQAGGSLRLSCAASGGIFLTYTMGWYRQAPGKEREFVAAIRSSSGRTYYADSVKGRFTISRDNAKNTVYLQMISLKPEDTSVYYCNAKYYGYRVGKYYPFGYWGQGTQVTVSS”, the “polyreactivity (PSR sort gate)” value is “high polyreactivity”.

On to “QVQLVESVGGLVQAGGSLRLSCAASGLIFHRYAMGWYRQAPGKERELVAAISSSGGITYYADSVKGRFTISRDNAKNTVYLQMNSLKPVDTAVYYCPADTGKGSPFSAGLGRAGDYWGHGTQVTVSS”, for which the “polyreactivity (PSR sort gate)” value is “low polyreactivity”.

With “QVQLVESGGGLVQAGGSLRLSCAASGRIFWRYAMGWYRQAPGKERELVAGISASGGSTFYADSVKGRFTISRDNAKNTVYLQMNSLKPEDTAVYYCAAVSRYIWYSARESYYWGQGTQVTVSS”, the “polyreactivity (PSR sort gate)” value is “high polyreactivity”.

On to “QVQLVESGGGLVQAGGSLRLSCAASRIFFNGYAMGWYRQAHGSERELVAAITVSGGRTFYADSVKGRFTISRDNAKNTVYLQMNSLKPEDTAVYYCNAVPRRVRLYDYWGQGTQVNVSS”, for which the “polyreactivity (PSR sort gate)” value is “high polyreactivity”.

“QVQLVQSGGGLVQAGGSLRLSCAASGRISIIYAMVWYRQAPGKERELVARISGSGGSTNYADSVKGRFTISRDNAKNTVYLQMNSLKPEDTAVYYCAARHYAVRRSRYPGKLGYYWVQGTQVTVSS”: the “polyreactivity (PSR sort gate)” value was “high polyreactivity”.

For the sequence “QVQLVESGGGLVQAGGSLRLSCAASGITFKYYAMGWYRQAPGKERELVAAISRGGGSTYYADSVKGRFTISRDNAKNTVYLQMNSLKPEDTAVYYCNAVFYSFIQSDYWGQGTQVTVSS”, the “polyreactivity (PSR sort gate)” value is “high polyreactivity”.

For “QVQLLESGGGLVQAGGSLRLSCAASGRIFSAYAMGWSRQAPGTERELVAAISWSGGSTYYADSVKGRFTISRDNAKNTVYLQMNSLKPEDTAVYYCAADYFYTSWYQHDYWGQGTQVTVSS”, the “polyreactivity (PSR sort gate)” value is “low polyreactivity”.

Consider “QVQLVESGGGLVQAGGSLRLSCAASGRTFTPNVMGWYRQAPGKERELVAAITQSGGRTYYADSVKGRFTISRDNAKNTVYLQMNSLKPEDTAVYYCNAERAGTYRYDYWGQGTQVTVSS”, for which the “polyreactivity (PSR sort gate)” value was “high polyreactivity”.

“QVQLVESRGGLVQAGGSLRLSCAASGFIFSSYAMGWYRQAHGKERELVAAITSGGSTNYADSVKGRFTISRDNAKNTVYLQMNSLKPEDTAVYYCATVPGGSWFFHWWSTGGDDEYWGQGTQVTVSS”: the “polyreactivity (PSR sort gate)” value is “low polyreactivity”.
